Laboratory results published in US20120196763.

T1: recombinant A. fumigatus ACP (acyl carrier protein), truncated form, pET30 fusion protein
T1 chain: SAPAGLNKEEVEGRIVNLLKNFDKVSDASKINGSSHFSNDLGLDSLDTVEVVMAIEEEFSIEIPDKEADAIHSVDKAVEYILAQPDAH

T2: recombinant C. albicans ACPe (CaO19.9975), pET30 fusion protein
T2 chain: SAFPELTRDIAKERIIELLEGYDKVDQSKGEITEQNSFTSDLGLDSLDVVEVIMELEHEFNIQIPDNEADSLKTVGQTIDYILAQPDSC

T3: recombinant C. albicans ACPg (CaO19.8439), pET30 fusion protein
T3 chain: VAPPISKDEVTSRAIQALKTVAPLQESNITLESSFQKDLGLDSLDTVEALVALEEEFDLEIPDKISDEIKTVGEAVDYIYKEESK

B1: recombinant A. fumigatus PPTB (phosphopantetheinyl transferase B), PPTB-NusA fusion protein (protein)
chain: MKLIPFPYPLNIGTDVVHLPRILRLINRPDYFHRFTRRILHEQEQRDFRTRFSLPPPSSGAEKTGLNPITPDMARWLAGRFAAKEAARKAAPAGASSLGWKDVIVRVGEADKGRPEIVYLDPMGCGETGGGRVGKLSISHDGDYVVATVLAAG
B2: recombinant C. albicans PPTB (CaO19.4812), expressed from pET43.1 (protein)
chain: MPKVGTVLGIGVDIVNSVRFERLLTAKSTSFGTRLSKRILHPEHELPLFQQMHSQRQAQYLTGSWAAKEALFKTLDLNSQKEFNFNQWYRFHDSNGKPFIWNDRYKLSDEEFHLSISHDDSLVIATVLRQKVYQI

Key:
[1] = biological target: T1, recombinant A. fumigatus ACP (acyl …)
[2] = biological target: T2, recombinant C. albicans ACPe …
[3] = biological target: T3, recombinant C. albicans ACPg …

| Protein | labelling of ACP with CoA-Bodipy TMR, resolved on SDS-PAGE gel [1] | pantetheinylation of ACP with CoA-Bodipy TMR, SDS-PAGE gel under UV light [1] | pantetheinylation of ACP with CoA-Bodipy TMR, SDS-PAGE gel under UV light [2] | pantetheinylation of ACP with CoA-Bodipy TMR, SDS-PAGE gel under UV light [3] | PPTB activity assay with ACP as substrate [1] |
| --- | --- | --- | --- | --- | --- |
| B1 | recombinant PPTB was able to label recombinant ACP (resolved on SDS-PAGE gel) in the presence of magnesium ions and CoA-Bodipy TMR | The A. fumigatus PPTB was able to pantetheinylate both A. fumigatus ACP and ACPg | whereas ACPe was pantetheinylated weakly | The A. fumigatus PPTB was able to pantetheinylate both A. fumigatus ACP and ACPg |  |
| B2 |  | ACPe and the A. fumigatus ACP were pantetheinylated weakly | ACPe and the A. fumigatus ACP were pantetheinylated weakly | The C. albicans PPTB pantetheinylated ACPg strongly | Assays for C. albicans PPTB activity using A. fumigatus ACP as a substrate gave a poor signal |
